Reference: US20220298231A1 (AC IMMUNE, published 2022)
Where two headings read alike, the source gives them in different places. Where no end group is shown, it is not given here. The star is where a group is joined. Biotin = O=C1N[C@H]2[C@H](CS[C@H]2CCCCC(=O)*)N1; Ahx = NCCCCCC(=O)O

T1: 100-114aa
T1 peptide: {Biotin-Ahx}-LGKNEEGAPQEGILE

T2: 91-105aa
T2 construct: also called alpha-synuclein peptide 91-105
T2 peptide: {Biotin-Ahx}-ATGFVKKDQLGKNEE

T3: 109-123aa
T3 peptide: {Biotin-Ahx}-QEGILEDMPVDPDNE

T4: 82-96aa
T4 construct: also called alpha-synuclein peptide 82-96
T4 peptide: {Biotin-Ahx}-VEGAGSIAAATGFVK

T5: 37-51aa
T5 construct: also called alpha-synuclein peptide 37-51
T5 peptide: {Biotin-Ahx}-VLYVGSKTKEGVVHG

T6: 1-15aa
T6 construct: also called alpha-synuclein peptide 1-15
T6 peptide: {Biotin-Ahx}-MDVFMKGLSKAKEGV


Columns and labels:
[1] = target: T1, 100-114aa; experiment: indirect ELISA on biotinylated 15-mer peptide (streptavidin plate), supernatant 1/100
Experimental: (§1) Epitope mapping for the antibodies derived from stable hybridoma clones was determined using an indirect ELISA on a library of 15-mer peptides covering the entire sequence of human alpha-synuclein from 1 to 140aa. […] Results are expressed as optical density (O.D.). Each bar represents data for an individual antibody.
(§2) Serum-free supernatants were harvested from stable hybridomas. The supernatants containing antibodies of interest were then screened by an indirect ELISA assay to determine epitopes. Epitopes were first determined using a library of 15-mer peptides covering the entire sequence of human alpha-synuclein protein, spanning amino acids (aa) 1-140 with 9aa offset and 6aa overlap. […] Briefly, streptavidin-coated ELISA plates were blocked overnight at 4° C. […] Plates were washed with PBS/0.05% Tween® 20 and then incubated with the hybridoma supernatants at 1/100 dilution for 1 hour at 25° C. […] After final wash, plates were incubated 2 hours at 25° C. with alkaline phosphatase substrate (p-nitrophenyl phosphate disodium hexahydrate; pNPP, S0942, Sigma) and read the absorbance optical density (O.D.) signal at 405 nm using an ELISA plate reader (Tecan, Switzerland).

[2] = target: T2, 91-105aa; experiment: 15-mer peptide ELISA
Experimental: as §1, §2

[3] = target: T3, 109-123aa; experiment: 15-mer peptide ELISA;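 further: indirect ELISA of hybridoma supernatant antibodies (1/100, 1 h) binding immobilized 15-mer peptides spanning human alpha-synuclein 1-140 on streptavidin plates, read as optical density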
Experimental: as §1, §2

[4] = target: T4, 82-96aa; experiment: 15-mer peptide ELISA
Experimental: as §1, §2

[5] = target: T3, 109-123aa; experiment: indirect ELISA on biotinylated 15-mer peptide (streptavidin plate), supernatant 1/100
Experimental: as §1, §2

[6] = target: T1, 100-114aa; experiment: 15-mer peptide ELISA;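 further: indirect ELISA of hybridoma supernatant antibodies (1/100, 1 h) binding immobilized 15-mer peptides spanning human alpha-synuclein 1-140 on streptavidin plates, read as optical density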
Experimental: as §1, §2

[7] = target: T5, 37-51aa; experiment: 15-mer peptide ELISA
Experimental: as §1, §2

[8] = target: T4, 82-96aa; experiment: 15-mer peptide ELISA
Experimental: as §1, §2

[9] = target: T6, 1-15aa; experiment: indirect ELISA on biotinylated 15-mer peptide (streptavidin plate), supernatant 1/100
Experimental: as §1, §2

[10] = target: T2, 91-105aa; experiment: 15-mer peptide ELISA
Experimental: as §1, §2

Binder	binding result [1]	binding result [2]	binding result [3]	binding result [4]	binding result [5]	binding result [6]	binding result [7]	binding result [8]	binding result [9]	binding result [10]
ACI-8033-18C11-Ab1 (antibody, V domains shown, mouse hybridoma mAb; also called 917.18C11A11F10) VH: QVQLQQPGAELVKPGASVKMSCKAAGYTFSSYWITWVRQRPGQGLDWIGDIYPGGGVTNYNEKFKTKATLTVDTSSSTAYMQLSSLTSEDSAVYYCATAQTTFAYWGQGTLVTVSA VL: DVLMTQTPLSLPVSLGDQASISCRSSQNIVHNNGNTYLEWYLQKPGQSPKLLIYKVSNRFSGVPDRFSGSGSGTDFTLKISRVEAEDLGVYYCFQGSHVPRTFGGGTKLEIK	binds	no binding (tested: supernatant 1/100)	no binding (tested: supernatant 1/100)	no binding (tested: supernatant 1/100)						
ACI-8033-5A12-Ab1 (antibody, V domains shown, mouse hybridoma mAb; also called 917.5A12A11C9) VH: QVHLKQSGADLVRPGASVKLSCKASGYTFTDYYINWVKQRPGQGLEWIARIYPGSGNTYYNEKFKGRATLSAEKSSTTAYMQLSSLTSEDSAVYFCVVGYYGAWGQGTTLTVSS VL: DVVMTQTPLSLPVSLGDQASISCRSSQSLVHSNGKTHLHWYLQKPGQSPKLLIYKVSNRFSGVPDRFSGSGSGTDFTLKISRVEAEDLGVYFCSQSTHVPWTFGGGTKLEIK	binds	no binding (tested: supernatant 1/100)		no binding (tested: supernatant 1/100)	binds					
ACI-7088-4317A4-Ab1 (antibody, V domains shown, mouse hybridoma mAb; also called 4317A4D2) VH: EVQLQQSGAELVRPGASVKLSCTASGFNIKDDYMHWVKQRPEQGLEWIGWIDPENGDTEYASKFQGKATMTADTSSNTAYLQLSSLTSEDTAVYYCKTWGTTQALFPYWGQGTLVTVSA VL: DIVMTQSQKFMYTSVGDRVSITCKASQNVGNAVGWYQQKAGQSPKLLIHSASNRYTGVPDRFTGTGSGTDFTLTINNMQSEDLADYFCQQYRSYPLTFGAGTKLELK							no binding (tested: supernatant 1/100)	no binding (tested: supernatant 1/100)	binds	no binding (tested: supernatant 1/100)

More lines, now with the values ahead:

binding result [1]	binding result [2]	binding result [3]	binding result [4]	binding result [5]	binding result [6]	binding result [7]	binding result [8]	binding result [9]	binding result [10]	Binder
binds	no binding (tested: supernatant 1/100)	no binding (tested: supernatant 1/100)	no binding (tested: supernatant 1/100)							ACI-8033-18D12-Ab1 (antibody, V domains shown, mouse hybridoma mAb; also called 917.18D12F10D6) VH: QVQLQQPGAELVKPGASVKMSCKASGYTFTSYWITWVRQRPGQGLDWIGDIYPGGGVTNYNEKFKTKATLTVDTSSSTAYMHLSSLTSEDSAVYFCATAQTTFAHWGQGTLVTVSA VL: DVLMTQTPLSLPVSLGDQASISCRSSQNIAHNNGNTYLEWYLQKPGQSPKLLIYKVSNRFSGVPDRFSGSGSGTDFTLKISRVEAEDLGVYYCFQGSHVPRTFGGGTKLEIK
	no binding (tested: supernatant 1/100)		no binding (tested: supernatant 1/100)	binds	no binding (tested: supernatant 1/100)					ACI-8033-19A2-Ab1 (antibody, V domains shown, mouse hybridoma mAb; also called 917.19A2E9E5) VH: EVQLVESGGGLVQPKGSLKLSCAASGFSFNTYAMNWVRQAPGKGLEWVARIRSKSNNYATYYVDSVKDRFTISRDDSESMLYLQMNNLKTEDTALYYCVSESAYWGQGTLVTVSA VL: DVVMTQTPLSLPVSLGDQASISCRSSQSLVHSNGNTYLYWYLQKPGQSPKLLIYKVSNRLSGVPDRFSGSGSGTDFTLKISRVEAEDLGVYFCSQSTHVPFTFGSGTKLEIK
						no binding (tested: supernatant 1/100)	no binding (tested: supernatant 1/100)	binds		ACI-7088-4303A1-Ab1 (antibody, V domains shown, mouse hybridoma mAb; also called 4303A1E7) VH: EVQLQQSGAELVRPGASVKLSCTASGFNIKDDYMHWVKQRPEQGLEWIGWIDPENGDSEYASKFQGKATMTADTSSNTAYLQLSSLTSEDTAVYYCKTWGTAQALFPYWGQGTLVTVSA VL: DIVMTQSQKFMSTSVGDRVSITCKASQNVGTSVGWYQQKAGQSPKLLIHSASNRYTGVPDRFTGSGSGTDFTLTINNMQSEDLADYFCQQYRSYPLTFGAGTKLELK
